Assay results reported in patent publication US20230374130A1 (published 2023).

Target: human CD3 epsilon (CD3ε) (human, UniProt P07766 23-207)
Assay: binding kinetics

human CD3 epsilon (CD3ε), sequence (P07766 23-207): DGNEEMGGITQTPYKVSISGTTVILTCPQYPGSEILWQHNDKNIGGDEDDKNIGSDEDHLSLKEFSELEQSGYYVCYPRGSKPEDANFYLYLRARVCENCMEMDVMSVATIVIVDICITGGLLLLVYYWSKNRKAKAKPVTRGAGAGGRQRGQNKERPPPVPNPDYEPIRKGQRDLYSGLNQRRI

Kd: 12 nM
B1: 160C9_T4h (bispecific antibody)
light: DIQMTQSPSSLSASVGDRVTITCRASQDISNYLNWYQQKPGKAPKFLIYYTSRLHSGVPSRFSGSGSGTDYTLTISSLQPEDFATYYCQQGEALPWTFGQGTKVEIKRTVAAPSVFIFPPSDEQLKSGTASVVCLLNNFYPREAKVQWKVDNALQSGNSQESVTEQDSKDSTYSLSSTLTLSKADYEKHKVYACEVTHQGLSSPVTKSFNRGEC
heavy 1: QVQLVQSGAEVKKPGASVKVSCKASGYKFTSYWIEWVRQAPGQGLEWIGEILPGSDTTNYNEKFKDRVTFTSDTSTSTVYMELSSLRSEDTAVYYCARDRGNYRAWFGYWGQGTLVTVSSASTKGPSVFPLAPSSKSTSGGTAALGCLVKDYFPEPVTVSWNSGALTSGVHTFPAVLQSSGLYSLSSVVTVPSSSLGTQTYICNVNHKPSNTKVDKKVEPKSCDKTHTCPPCPAPEAAGAPSVFLFPPKPKDTLMISRTPEVTCVVVDVSHEDPEVKFNWYVDGVEVHNAKTKPREEQYNSTYRVVSVLTVLHQDWLNGKEYKCKVSNKALPAPIEKTISKAKGQPREPQVYTLPPSRDELTKNQVSLSCAVKGFYPSDIAVEWESNGQPENNYKTTPPVLDSDGSFFLVSKLTVDKSRWQQGNVFSCSVMHEALHNHYTQKSLSLSPG
heavy 2: not shown
